From patent US20230340114A1 (IMMUNE ONC THERAPEUTICS, published 2023)
Like-named read-outs stand apart in the source and are kept apart here.

T1: recombinant cyno CD3e (Acro, cat #CDE-C5226) (cynomolgus monkey, UniProt Q95LI5 22-117)
T1 sequence (looked up): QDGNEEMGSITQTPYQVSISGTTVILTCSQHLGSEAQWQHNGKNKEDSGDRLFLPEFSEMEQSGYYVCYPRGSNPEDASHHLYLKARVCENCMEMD


Columns and labels:
[1] = target: T2, human LILRB4 expressed on cells (human, UniProt Q8NHJ6 22-448); experiment: FACS (Geo MFI) on normal human monocytes; panel assigned to monocytes by the order in legend paragraph 86
T2 construct: whole, on cells; also called ILT3; CD85k

[2] = target: T2, human LILRB4 expressed on cells; experiment: cell-based or functional assay
[3] = target: recombinant CD3e-CD3d heterodimer protein (Acro Biosystems) (UniProt P07766 23-126; P04234 22-105); experiment: SPR (Biacore 8K), CD3e-CD3d immobilized on CM5 chip, bispecific as analyte, 1:1 model
Procedure: (§1) Binding affinities of first-generation bispecific antibodies to recombinant CD3e-CD3d heterodimer protein (Acro Biosystems) or LILRB4 recombinant protein (Sino Biological) were measured by surface plasmon resonance using a Biacore 8K instrument. Briefly, CD3e-CD3d or LILRB4 protein was immobilized on a CM5 chip with EDC and NHS according to standard protocols. […] The chip was regenerated using 10 mM glycine pH 1.5 as the regeneration buffer. The sensorgrams for reference channel Fc1 and buffer channel were subtracted from the test sensorgrams and the experimental data was fitted by 1:1 binding model.

[4] = target: T3, recombinant human LILRB4 protein (Sino Biological, cat #16742-H08H) (human, UniProt Q8NHJ6 22-259); experiment: SPR (Biacore 8K), LILRB4 immobilized on CM5 chip, bispecific as analyte, 1:1 model
T3 construct: extracellular domain; also called LILRB4 recombinant protein (Sino Biological); Human LILRB4 ECD-his; not shown: his tag
Procedure: as §1

[5] = target: T2, human LILRB4 expressed on cells; experiment: cell-based or functional assay; remark: listed apart in the source
[6] = target: T4, recombinant cyno LILRB4 (Acro, cat #CDK-C5227) (cynomolgus monkey); experiment: BLI (Gator Bio), bispecific captured on anti-human Fc probe, cyno LILRB4 in solution, 1:1 global fit
T4 construct: extracellular domain; also called cynomolgus monkey LILRB4 ECD-his recombinant protein (ACRObiosystems)
Procedure: (§2) Binding affinities of second-generation bispecific antibodies were measured to recombinant human CD3e (Acro, cat #CDE-H5223), cyno CD3e (Acro, cat #CDE-C5226), human LILRB4 (Sino Biological, cat #16742-H08H), and cyno LILRB4 (Acro, cat #CDK-C5227) by Bio-Layer Interferometry (BLI) using an instrument from Gator Bio. Bispecific antibodies were captured using an immobilized anti-human Fc antibody (HFC) probe (Gator Bio, cat #PL168-160003) at 5 ug/mL load. […] Binding affinity constants were determined using a 1:1 fitting model (Global Fit) with Gator's data analysis software 1.6.1.1203, and the KD was calculated using the ratio Kdis/Kon.

[7] = target: T2, human LILRB4 expressed on cells; experiment: FACS on LILRB4+ THP-1 cells, Alexa 647 anti-human IgG Fc detection
Procedure: Binding of first and second generation bispecifics to CD3 or LILRB4 was measured by FACS on Jurkat cells or THP-1 cells. To measure binding of bispecifics to THP-1 cells, THP-1 cells were first incubated with human Fc blocker (BD Pharmingen Catalog No. 564220) at 10 ug per one million cells at room temperature for 10 minutes, followed by incubated with serially diluted bispecifics for 30 minutes on ice. Cells were washed twice with BSA staining buffer (BD Pharmingen Catalog No. 554657) and incubated with secondary Alexa 647 conjugated anti-human IgG Fc monoclonal antibody (Biolegend Catalog No. 409306) at 5 ug/mL for 30 minutes on ice. After final wash, 7-AAD was applied to exclude dead cells. To measure binding of first generation bispecifics to Jurkat cells, each bispecific was diluted in buffer including 1% BSA (5-fold dilution series, 400 nM highest concentration) and incubated with cells for 30 minutes at 4° C. Then bispecifics were stained with Alexa 647 anti-human IgG Fc at 5 ug/mL at 4° C. for 0.5 hours before analysis.

[8] = target: recombinant human CD3e (Acro, cat #CDE-H5223) (human, UniProt P07766 23-126); experiment: BLI (Gator Bio), bispecific captured on anti-human Fc probe, human CD3e in solution, 1:1 global fit
Procedure: as §2

[9] = target: T3, recombinant human LILRB4 protein (Sino …); experiment: BLI (Gator Bio), bispecific captured on anti-human Fc probe, human LILRB4 in solution, 1:1 global fit
Procedure: as §2

CD3 on Jurkat cells = target: T5, CD3 on Jurkat cells (UniProt P07766 23-207); experiment: FACS on CD3+ Jurkat cells; estimated, curve did not reach a plateau
T5 construct: whole, on cells; on cells it stands in the whole CD3/TCR complex; also called CD3+ Jurkat cells

[10] = target: T1, recombinant cyno CD3e (Acro, cat …); experiment: BLI (Gator Bio), bispecific captured on anti-human Fc probe, cyno CD3e in solution, 1:1 global fit
Procedure: as §2

T5 sequence (P07766 23-207): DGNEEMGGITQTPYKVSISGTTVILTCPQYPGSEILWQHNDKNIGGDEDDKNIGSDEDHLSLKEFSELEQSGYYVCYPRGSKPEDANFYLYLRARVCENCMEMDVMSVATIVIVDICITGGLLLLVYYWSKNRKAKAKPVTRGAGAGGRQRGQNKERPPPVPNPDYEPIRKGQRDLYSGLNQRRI
Chain of recombinant human CD3e (Acro, cat #CDE-H5223) (P07766 23-126 limits assumed): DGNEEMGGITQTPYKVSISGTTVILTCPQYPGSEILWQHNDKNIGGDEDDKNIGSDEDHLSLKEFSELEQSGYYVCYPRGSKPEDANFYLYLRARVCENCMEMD
Chain of recombinant CD3e-CD3d heterodimer protein (Acro Biosystems) (P07766 23-126 limits assumed, chain 1 of 2): as the sequence (P07766 23-126 limits assumed) above
Chain of recombinant CD3e-CD3d heterodimer protein (Acro Biosystems) (P04234 22-105 limits assumed, chain 2 of 2): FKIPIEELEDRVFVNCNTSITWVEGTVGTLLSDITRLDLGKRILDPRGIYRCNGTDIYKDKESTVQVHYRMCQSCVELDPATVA

| EC50 (read off the curve) [1] | Monocyte (max %), Donor 1 [2] | Monocyte (max %), Donor 2 [2] | Monocyte (max %), Donor 3 [2] | Kd [3] | Kd [4] | Kd [6] | EC50 [7] | Kd [8] | Kd [9] | EC50 (CD3 on Jurkat cells) | Kd [10] | Binder | Monocyte killing EC50, Donor 2 [2] | T-cell cytotoxicity, THP-1 (max %) [2] | T-cell cytotoxicity, THP-1 EC50 [2] | Autologous monocyte killing EC50 [5] | T-cell cytotoxicity, MV4-11 EC50 [5] | T-cell cytotoxicity, THP-1 EC50 [5] | Monocyte killing EC50, Donor 3 [2] |
| --- | --- | --- | --- | --- | --- | --- | --- | --- | --- | --- | --- | --- | --- | --- | --- | --- | --- | --- | --- |
| ~0.8 nM | 43% | 41% | 13% | 49.6 nM | 0.19 nM | – | – | – | – | – | – | 4-3ab (bispecific antibody, human IgG1, kappa, L234A L235A, LILRB4 arm from H7K3m5, CD3 arm from WO2019057099; human IgG1 constant domains with knob-in-hole and effector-reducing mutations; also called first-generation LILRB4/CD3 bispecific antibody No. 1) heavy 1: not shown heavy 2: EVQLVESGGGLVQPGGSLRLSCAASGFSLSSSYWISWVRQAPGKGLEWIGSIDSGSVGITYYATWVKGRFTISRDNSKNTLYLQMNSLRAEDTAVYYCARHGDNWALDLWGQGTLVTVSSASTKGPSVFPLAPSSKSTSGGTAALGCLVKDYFPEPVTVSWNSGALTSGVHTFPAVLQSSGLYSLSSVVTVPSSSLGTQTYICNVNHKPSNTKVDKRVEPKSCDKTHTCPPCPAPEAAGGPSVFLFPPKPKDTLMISRTPEVTCVVVDVSHEDPEVKFNWYVDGVEVHNAKTKPREEQYNSTYRVVSVLTVLHQDWLNGKEYKCKVSNKALPAPIEKTISKAKGQPREPQVCTLPPSREEMTKNQVSLSCAVKGFYPSDIAVEWESNGQPENNYKTTPPVLDSDGSFFLVSKLTVDKSRWQQGNVFSCSVMHEALHNHYTQKSLSLSPG light 1: DIVMTQSPDSLAVSLGERATINCKSSQSLLNSRTRKNYLAWYQQKPGQPPKLLIYWASTRQSGVPDRFSGSGSGTDFTLTISSLQAEDVAVYYCTQSHTLRTFGGGTKVEIKPDIQNPDPAVYQLRDSKSSDKSVCLFTDFDSQTQVSQSKDSDVYITDKCVLDMRSMDFKSNSAVAWSQKSDFACANAFQNSIIPEDTFFPSPESS light 2: DIQMTQSPSTLSASVGDRVTITCRASQSISSWLAWYQQKPGKAPKLLIYKASTLASGVPSRFSGSGSGTEFTLTISSLQPDDFATYYCQHGYIRGDLDNVFGGGTKVEIKRTVAAPSVFIFPPSDEQLKSGTASVVCLLNNFYPREAKVQWKVDNALQSGNSQESVTEQDSKDSTYSLSSTLTLSKADYEKHKVYACEVTHQGLSSPVTKSFNRGEC | 0.0094 nM | 98% | 0.36 pM | – | – | – | – |
| – | – | – | – | – | – | 9.53 nM | 1.3 nM | 0.1 nM | 0.84 nM | ~854 nM | 0.07 nM | 4-3ab Q1E S91A (bispecific antibody, human IgG1, kappa, L234A L235A, Second-generation 1+1 bispecific, expressed in CHO-K1; also called Bispecific 2; 4-3ab (second generation)) heavy 1: not shown heavy 2: EVQLVESGGGLVQPGGSLRLSCAASGFSLSSSYWISWVRQAPGKGLEWIGSIDSGSVGITYYATWVKGRFTISRDNSKNTLYLQMNSLRAEDTAVYYCARHGDNWALDLWGQGTLVTVSSASTKGPSVFPLAPSSKSTSGGTAALGCLVKDYFPEPVTVSWNSGALTSGVHTFPAVLQSSGLYSLSSVVTVPSSSLGTQTYICNVNHKPSNTKVDKRVEPKSCDKTHTCPPCPAPEAAGGPSVFLFPPKPKDTLMISRTPEVTCVVVDVSHEDPEVKFNWYVDGVEVHNAKTKPREEQYNSTYRVVSVLTVLHQDWLNGKEYKCKVSNKALPAPIEKTISKAKGQPREPQVCTLPPSREEMTKNQVSLSCAVKGFYPSDIAVEWESNGQPENNYKTTPPVLDSDGSFFLVSKLTVDKSRWQQGNVFSCSVMHEALHNHYTQKSLSLSPG light 1: DIVMTQSPDSLAVSLGERATINCKSSQSLLNSRTRKNYLAWYQQKPGQPPKLLIYWASTRQSGVPDRFSGSGSGTDFTLTISSLQAEDVAVYYCTQSHTLRTFGGGTKVEIKPDIQNPDPAVYQLRDSKSSDKSVCLFTDFDSQTQVSQSKDSDVYITDKCVLDMRSMDFKSNSAVAWSQKSDFACANAFQNSIIPEDTFFPAPESS light 2: DIQMTQSPSTLSASVGDRVTITCRASQSISSWLAWYQQKPGKAPKLLIYKASTLASGVPSRFSGSGSGTEFTLTISSLQPDDFATYYCQHGYIRGDLDNVFGGGTKVEIKRTVAAPSVFIFPPSDEQLKSGTASVVCLLNNFYPREAKVQWKVDNALQSGNSQESVTEQDSKDSTYSLSSTLTLSKADYEKHKVYACEVTHQGLSSPVTKSFNRGEC | – | – | – | 0.026 nM | 2.5 pM | 4.3 pM | – |
| ~0.4 nM | 43% | 34% | 32.5% | 33.4 nM | 0.27 nM | – | – | – | – | – | – | 4ab-3 (bispecific antibody, human IgG1, kappa, L234A L235A, also called first-generation LILRB4/CD3 bispecific antibody No. 2) heavy 1: not shown heavy 2: EVQLVESGGGLVQPGGSLRLSCAASGFSLSSSYWISWVRQAPGKGLEWIGSIDSGSVGITYYATWVKGRFTISRDNSKNTLYLQMNSLRAEDTAVYYCARHGDNWALDLWGQGTLVTVLEDLKNVFPPEVAVFEPSEAEISHTQKATLVCLATGFYPDHVELSWWVNGKEVHSGVCTDPQPLKEQPALQDSRYALSSRLRVSATFWQNPRNHFRCQVQFYGLSENDEWTQDRAKPVTQIVSAEAWGRASDKTHTCPPCPAPEAAGGPSVFLFPPKPKDTLMISRTPEVTCVVVDVSHEDPEVKFNWYVDGVEVHNAKTKPREEQYNSTYRVVSVLTVLHQDWLNGKEYKCKVSNKALPAPIEKTISKAKGQPREPQVCTLPPSREEMTKNQVSLSCAVKGFYPSDIAVEWESNGQPENNYKTTPPVLDSDGSFFLVSKLTVDKSRWQQGNVFSCSVMHEALHNHYTQKSLSLSPG light 1: not shown light 2: DIQMTQSPSTLSASVGDRVTITCRASQSISSWLAWYQQKPGKAPKLLIYKASTLASGVPSRFSGSGSGTEFTLTISSLQPDDFATYYCQHGYIRGDLDNVFGGGTKVEIKPDIQNPDPAVYQLRDSKSSDKSVCLFTDFDSQTQVSQSKDSDVYITDKCVLDMRSMDFKSNSAVAWSQKSDFACANAFQNSIIPEDTFFPSPESS | 0.029 nM | 98.6% | 0.084 pM | – | – | – | 9.25 pM |
| – | – | – | – | – | – | 8.82 nM | 0.7 nM | 0.07 nM | 0.89 nM | ~257 nM | 0.26 nM | 4ab3-4ab S91A (bispecific antibody, human IgG1, kappa, L234A L235A, Second-generation 2+1 bispecific, expressed in CHO-K1; also called Bispecific 1; 4ab3-4ab (second generation)) heavy 1: not shown heavy 2: EVQLVESGGGLVQPGGSLRLSCAASGFSLSSSYWISWVRQAPGKGLEWIGSIDSGSVGITYYATWVKGRFTISRDNSKNTLYLQMNSLRAEDTAVYYCARHGDNWALDLWGQGTLVTVLEDLKNVFPPEVAVFEPSEAEISHTQKATLVCLATGFYPDHVELSWWVNGKEVHSGVCTDPQPLKEQPALQDSRYALSSRLRVSATFWQNPRNHFRCQVQFYGLSENDEWTQDRAKPVTQIVSAEAWGRASDKTHTCPPCPAPEAAGGPSVFLFPPKPKDTLMISRTPEVTCVVVDVSHEDPEVKFNWYVDGVEVHNAKTKPREEQYNSTYRVVSVLTVLHQDWLNGKEYKCKVSNKALPAPIEKTISKAKGQPREPQVCTLPPSREEMTKNQVSLSCAVKGFYPSDIAVEWESNGQPENNYKTTPPVLDSDGSFFLVSKLTVDKSRWQQGNVFSCSVMHEALHNHYTQKSLSLSPG light 1: not shown light 2: DIQMTQSPSTLSASVGDRVTITCRASQSISSWLAWYQQKPGKAPKLLIYKASTLASGVPSRFSGSGSGTEFTLTISSLQPDDFATYYCQHGYIRGDLDNVFGGGTKVEIKPDIQNPDPAVYQLRDSKSSDKSVCLFTDFDSQTQVSQSKDSDVYITDKCVLDMRSMDFKSNSAVAWSQKSDFACANAFQNSIIPEDTFFPAPESS | – | – | – | 0.0059 nM | 0.034 pM | 0.5 pM | – |
